The source of these data is patent publication US11965039B2, “Compstatin analogues and their medical uses” (priority 2018, dated 2024).

Sequences and labels used below:
B1: Compound 10 (peptide)
peptide: Ac-ESSAYCIWQDWGEHRCT-NH2
modifications: disulfide 6-16
SMILES: CC[C@H](C)[C@@H]1NC(=O)[C@@H](NC(=O)[C@H](Cc2ccc(O)cc2)NC(=O)[C@H](C)NC(=O)[C@H](CO)NC(=O)[C@H](CO)NC(=O)[C@H](CCC(=O)O)NC(C)=O)CSSC[C@@H](C(=O)N[C@H](C(N)=O)[C@@H](C)O)NC(=O)[C@H](CCCNC(=N)N)NC(=O)[C@H](Cc2c[nH]cn2)NC(=O)[C@H](CCC(=O)O)NC(=O)CNC(=O)[C@H](Cc2c[nH]c3ccccc23)NC(=O)[C@H](CC(=O)O)NC(=O)[C@H](CCC(N)=O)NC(=O)[C@H](Cc2c[nH]c3ccccc23)NC1=O
B2: Compound 145 (peptide)
peptide: Ac-EFCI[Trp(1-Me)]QDWGEHRC[Sar]EA-{AEEA-AEEA-X1-NH2}
modifications: disulfide 3-13
SMILES: CC[C@H](C)[C@@H]1NC(=O)[C@@H](NC(=O)[C@H](Cc2ccccc2)NC(=O)[C@H](CCC(=O)O)NC(C)=O)CSSC[C@@H](C(=O)N(C)CC(=O)N[C@@H](CCC(=O)O)C(=O)N[C@@H](C)C(=O)NCCOCCOCC(=O)NCCOCCOCC(=O)N[C@@H](CCCCNC(=O)CC[C@H](NC(=O)CNC(=O)CC[C@H](NC(=O)CCCCCCCCCCCCCCCCC(=O)O)C(=O)O)C(=O)O)C(N)=O)NC(=O)[C@H](CCCNC(=N)N)NC(=O)[C@H](Cc2c[nH]cn2)NC(=O)[C@H](CCC(=O)O)NC(=O)CNC(=O)[C@H](Cc2c[nH]c3ccccc23)NC(=O)[C@H](CC(=O)O)NC(=O)[C@H](CCC(N)=O)NC(=O)[C@H](Cc2cn(C)c3ccccc23)NC1=O
B3: Compound 9 (peptide)
peptide: Ac-YCIWQDWGEHRCT-NH2
modifications: disulfide 2-12
SMILES: CC[C@H](C)[C@@H]1NC(=O)[C@@H](NC(=O)[C@H](Cc2ccc(O)cc2)NC(C)=O)CSSC[C@@H](C(=O)N[C@H](C(N)=O)[C@@H](C)O)NC(=O)[C@H](CCCNC(=N)N)NC(=O)[C@H](Cc2c[nH]cn2)NC(=O)[C@H](CCC(=O)O)NC(=O)CNC(=O)[C@H](Cc2c[nH]c3ccccc23)NC(=O)[C@H](CC(=O)O)NC(=O)[C@H](CCC(N)=O)NC(=O)[C@H](Cc2c[nH]c3ccccc23)NC1=O
B4: Compound 11 (peptide)
peptide: Ac-[Sar]CIWQDWGEHRCT-NH2
modifications: disulfide 2-12
SMILES: CC[C@H](C)[C@@H]1NC(=O)[C@@H](NC(=O)CN(C)C(C)=O)CSSC[C@@H](C(=O)N[C@H](C(N)=O)[C@@H](C)O)NC(=O)[C@H](CCCNC(=N)N)NC(=O)[C@H](Cc2c[nH]cn2)NC(=O)[C@H](CCC(=O)O)NC(=O)CNC(=O)[C@H](Cc2c[nH]c3ccccc23)NC(=O)[C@H](CC(=O)O)NC(=O)[C@H](CCC(N)=O)NC(=O)[C@H](Cc2c[nH]c3ccccc23)NC1=O
B5: Compound 144 (peptide)
peptide: Ac-SEFCI[Trp(1-Me)]QDW[Sar]EHRC[Sar]E-{AEEA-AEEA-X1-NH2}
modifications: disulfide 4-14
SMILES: CC[C@H](C)[C@@H]1NC(=O)[C@@H](NC(=O)[C@H](Cc2ccccc2)NC(=O)[C@H](CCC(=O)O)NC(=O)[C@H](CO)NC(C)=O)CSSC[C@@H](C(=O)N(C)CC(=O)N[C@@H](CCC(=O)O)C(=O)NCCOCCOCC(=O)NCCOCCOCC(=O)N[C@@H](CCCCNC(=O)CC[C@H](NC(=O)CNC(=O)CC[C@H](NC(=O)CCCCCCCCCCCCCCCCC(=O)O)C(=O)O)C(=O)O)C(N)=O)NC(=O)[C@H](CCCNC(=N)N)NC(=O)[C@H](Cc2c[nH]cn2)NC(=O)[C@H](CCC(=O)O)NC(=O)CN(C)C(=O)[C@H](Cc2c[nH]c3ccccc23)NC(=O)[C@H](CC(=O)O)NC(=O)[C@H](CCC(N)=O)NC(=O)[C@H](Cc2cn(C)c3ccccc23)NC1=O

Starred links: 1 amine or outer side, 2 acyl side, 3 side chain; linkers in the order of their positions; H or OH if unused. Positions of bridges follow the written chain, without caps; N, C: chain ends. Non-standard residues stand in square brackets, D forms with d. X1 = K(γGlu-G-γGlu-17-carboxy-heptadecanoyl), O=C(O)CCCCCCCCCCCCCCCCC(=O)N[C@@H](CCC(=O)NCC(=O)N[C@@H](CCC(=O)NCCCC[C@H](N[*:1])C(=O)[*:2])C(=O)O)C(=O)O; Trp(1-Me) = Cn1cc(C[C@H](N)C(=O)O)c2ccccc21; AEEA = NCCOCCOCC(=O)O; Sar = CNCC(=O)O Where only a bound is given, the exact number is not on record here.

For this test, the target named is Human C3 (Complement tech cat #A113c) (human, UniProt P01024 23-1663). Kind of test: cell-based or functional assay.
Chain of Human C3 (Complement tech cat #A113c) (P01024 23-1663 limits assumed): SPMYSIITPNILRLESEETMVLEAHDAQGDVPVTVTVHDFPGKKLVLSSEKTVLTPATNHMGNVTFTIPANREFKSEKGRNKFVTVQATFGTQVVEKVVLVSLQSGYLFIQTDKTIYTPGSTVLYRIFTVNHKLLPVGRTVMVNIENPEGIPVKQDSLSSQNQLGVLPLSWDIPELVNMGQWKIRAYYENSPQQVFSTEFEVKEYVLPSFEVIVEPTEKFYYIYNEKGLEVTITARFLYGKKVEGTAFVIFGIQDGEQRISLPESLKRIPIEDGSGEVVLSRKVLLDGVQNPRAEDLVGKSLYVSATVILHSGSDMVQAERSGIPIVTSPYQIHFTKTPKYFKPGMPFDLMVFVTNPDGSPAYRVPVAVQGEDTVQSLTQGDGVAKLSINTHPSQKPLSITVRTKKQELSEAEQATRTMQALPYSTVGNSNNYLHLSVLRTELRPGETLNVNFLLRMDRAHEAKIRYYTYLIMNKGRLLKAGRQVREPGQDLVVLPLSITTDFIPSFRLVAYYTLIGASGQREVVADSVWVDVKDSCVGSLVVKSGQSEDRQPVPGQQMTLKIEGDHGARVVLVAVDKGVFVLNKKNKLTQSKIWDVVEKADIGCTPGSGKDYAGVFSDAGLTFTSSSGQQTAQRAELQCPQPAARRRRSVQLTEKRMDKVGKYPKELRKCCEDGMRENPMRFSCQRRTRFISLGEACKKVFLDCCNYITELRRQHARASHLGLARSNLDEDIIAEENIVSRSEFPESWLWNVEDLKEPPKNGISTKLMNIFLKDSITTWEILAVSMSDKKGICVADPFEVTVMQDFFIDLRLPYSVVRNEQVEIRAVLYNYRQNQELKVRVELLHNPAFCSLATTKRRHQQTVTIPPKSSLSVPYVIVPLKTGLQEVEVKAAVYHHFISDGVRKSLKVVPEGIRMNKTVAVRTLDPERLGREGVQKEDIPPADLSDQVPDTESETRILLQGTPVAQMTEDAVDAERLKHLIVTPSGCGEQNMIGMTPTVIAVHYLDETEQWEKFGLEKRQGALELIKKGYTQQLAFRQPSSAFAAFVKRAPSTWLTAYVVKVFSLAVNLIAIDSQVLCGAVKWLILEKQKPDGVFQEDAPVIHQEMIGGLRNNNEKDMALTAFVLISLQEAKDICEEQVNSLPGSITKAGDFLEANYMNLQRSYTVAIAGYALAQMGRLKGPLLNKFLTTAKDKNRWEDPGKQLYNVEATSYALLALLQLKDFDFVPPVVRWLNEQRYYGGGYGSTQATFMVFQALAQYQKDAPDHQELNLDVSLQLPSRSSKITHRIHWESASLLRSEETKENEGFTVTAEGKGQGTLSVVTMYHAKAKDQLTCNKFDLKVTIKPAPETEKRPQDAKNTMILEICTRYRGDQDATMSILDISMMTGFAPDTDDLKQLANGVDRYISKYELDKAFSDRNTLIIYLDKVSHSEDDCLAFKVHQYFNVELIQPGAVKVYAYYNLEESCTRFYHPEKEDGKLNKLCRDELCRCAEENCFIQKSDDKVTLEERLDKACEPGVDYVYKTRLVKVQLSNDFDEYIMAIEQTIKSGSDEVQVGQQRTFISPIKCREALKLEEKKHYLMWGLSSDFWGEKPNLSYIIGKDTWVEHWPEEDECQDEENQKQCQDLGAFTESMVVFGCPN
For the molecule B1, the “inhibition of hemolysis IC50” value is less than 100 nM.

Consider B2, for which the “inhibition of hemolysis IC50” value is less than 100 nM.

For B3, the “inhibition of hemolysis IC50” value was less than 100 nM.

As for B4, the “inhibition of hemolysis IC50” value was less than 100 nM.

Regarding B5, the “inhibition of hemolysis IC50” value was less than 100 nM.
